Data taken from patent US7163817 (COUNCIL OF SCIENTIFIC AND INDUSTRIAL RESEARCH A NEW DEHLI …, dated 2007).

T1: human fibrin (immobilised, fibrin-Sepharose) (human, UniProt P02671 36-629; P02675 45-491; P02679 27-437)
T1 construct: Fibrin coupled to Sepharose beads; Its preparation and chain limits are not described; also called human fibrin-Sepharose
T1 sequence 1: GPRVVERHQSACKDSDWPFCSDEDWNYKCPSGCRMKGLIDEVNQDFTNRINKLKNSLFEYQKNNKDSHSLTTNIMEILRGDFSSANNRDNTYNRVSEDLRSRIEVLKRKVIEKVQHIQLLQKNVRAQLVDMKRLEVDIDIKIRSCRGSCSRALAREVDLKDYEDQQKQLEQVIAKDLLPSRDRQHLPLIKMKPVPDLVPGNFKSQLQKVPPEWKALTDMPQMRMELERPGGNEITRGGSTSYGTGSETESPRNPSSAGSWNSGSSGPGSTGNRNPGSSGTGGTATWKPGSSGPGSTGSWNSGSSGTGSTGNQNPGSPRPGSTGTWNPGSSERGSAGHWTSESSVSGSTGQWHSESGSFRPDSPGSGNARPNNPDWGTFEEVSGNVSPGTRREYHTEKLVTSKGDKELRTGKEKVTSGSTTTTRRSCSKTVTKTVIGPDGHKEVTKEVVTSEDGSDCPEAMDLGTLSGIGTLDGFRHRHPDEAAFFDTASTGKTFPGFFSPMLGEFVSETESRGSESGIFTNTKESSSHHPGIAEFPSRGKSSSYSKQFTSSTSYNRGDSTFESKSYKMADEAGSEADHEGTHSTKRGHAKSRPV
T1 sequence 2: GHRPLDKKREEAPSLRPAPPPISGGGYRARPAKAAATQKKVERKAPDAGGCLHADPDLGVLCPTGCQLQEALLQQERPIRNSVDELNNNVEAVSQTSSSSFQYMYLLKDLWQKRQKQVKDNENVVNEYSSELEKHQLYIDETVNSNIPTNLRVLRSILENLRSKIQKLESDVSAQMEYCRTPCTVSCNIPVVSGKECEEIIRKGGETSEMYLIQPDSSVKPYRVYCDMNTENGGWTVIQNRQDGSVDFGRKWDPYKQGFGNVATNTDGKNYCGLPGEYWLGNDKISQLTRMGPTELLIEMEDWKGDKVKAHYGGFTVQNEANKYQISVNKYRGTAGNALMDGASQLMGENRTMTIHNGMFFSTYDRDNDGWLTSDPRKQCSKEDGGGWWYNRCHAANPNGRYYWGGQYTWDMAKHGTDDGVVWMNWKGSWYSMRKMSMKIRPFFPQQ
T1 sequence 3: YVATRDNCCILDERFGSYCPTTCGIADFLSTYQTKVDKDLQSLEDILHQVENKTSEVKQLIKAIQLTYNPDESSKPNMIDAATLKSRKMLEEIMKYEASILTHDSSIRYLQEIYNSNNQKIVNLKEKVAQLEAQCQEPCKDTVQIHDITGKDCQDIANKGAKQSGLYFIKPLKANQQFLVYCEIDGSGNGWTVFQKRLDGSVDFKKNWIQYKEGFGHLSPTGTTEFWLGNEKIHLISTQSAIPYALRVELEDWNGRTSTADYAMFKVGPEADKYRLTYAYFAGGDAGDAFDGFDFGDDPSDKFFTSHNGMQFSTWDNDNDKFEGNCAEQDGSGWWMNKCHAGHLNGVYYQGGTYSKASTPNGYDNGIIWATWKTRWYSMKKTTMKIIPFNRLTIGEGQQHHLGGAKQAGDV

B1: SK-FBD(1,2) chimeric protein (other)
chain: MIAGPEWLLDRPSVNNSQLVVSVAGTVEGTNQDISLKFFEIDLTSRPAHGGKTEQGLSPKSKPFATDSGAMSHKLEKADLLKAIQEQLIANVHSNDDYFEVIDFASDATITDRNGKVYFADKDGSVTLPTQPVQEFLLSGHVRVRPYKEKPIQNQAKSVDVEYTVQFTPLNPDDDFRPGLKDTKLLKTLAIGDTITSQELLAQAQSILNKNHPGYTIYERDSSIVTHDNDIFRTILPMDQEFTYRVKNREQAYRINKKSGLNEEINNTDLISEKYYVLKKGEKPYDPFDRSHLKLFTIKYVDVDTNELLKSEQLLTASERNLDFRDLYDPRDKAKLLYNNLDAFGIMDYTLTGKVEDNHDDTNRIITVYMGKRPEGENASYHLAGGGQAQQMVQPQSPVAVSQSKPGCYDNGKHYQINQQWERTYLGNVLVCTCYGGSRGFNCESKPEAEETCFDKYTGNTYRVGDTYERPKDSMIWDCTCIGAGRGRISC
notes: Start residue 1 is inferred from primer MY-10, which hybridises at the natural TG site QAQQMV
B2: SK control (streptokinase, fibrin-Sepharose experiment) (other)
chain: IAGPEWLLDRPSVNNSQLVVSVAGTVEGTNQDISLKFFEIDLTSRPAHGGKTEQGLSPKSKPFATDSGAMSHKLEKADLLKAIQEQLIANVHSNDDYFEVIDFASDATITDRNGKVYFADKDGSVTLPTQPVQEFLLSGHVRVRPYKEKPIQNQAKSVDVEYTVQFTPLNPDDDFRPGLKDTKLLKTLAIGDTITSQELLAQAQSILNKNHPGYTIYERDSSIVTHDNDIFRTILPMDQEFTYRVKNREQAYRINKKSGLNEEINNTDLISEKYYVLKKGEKPYDPFDRSHLKLFTIKYVDVDTNELLKSEQLLTASERNLDFRDLYDPRDKAKLLYNNLDAFGIMDYTLTGKVEDNHDDTNRIITVYMGKRPEGENASYHLAYDKDRYTEEEREVYSYLRYTGTPIPDNPNDK

Tests used:
[1] = molecular target: T1, human fibrin (immobilised, …); test: refolding with fibrin-Sepharose beads; washes with binding buffer and 2 M urea, elution with 6 M urea
[2] = molecular target: T1, human fibrin (immobilised, …); test: fibrin-Sepharose affinity chromatography; washes with binding buffer and 2 M urea, elution with 6 M urea

Binder | fibrin-bound protein eluted with 6 M urea [1] | binding result [2]
B1 | ~4 mg | –
B2 | – | no binding
